In patent US20080213909A1, “PHARMACEUTICAL PACKAGING ASSAY” (priority 2006, published 2008):

Legend:
[1] = Direct vial assay: adsorption of Cy3-labeled fibrinogen to coated Type 1 glass surfaces (fluorescence); assay type: physicochemical; settings: 5 μg/mL in 50 mM phosphate buffer pH 7, 4° C., 72 hours; four surfaces (FIG. 3)
Source text: (§1) One aspect of the invention is an assay method for the determination of drug adsorption to commercially available pharmaceutical packaging surfaces and test surfaces under development. Pharmaceutical packaging surface materials include glass, polymers (polyethylene, polypropylene, polycarbonate, polyterphalate, cylic olefin copolymer, etc.), elastomers (rubbers, etc.), metals and alloys for vials, syringes, ampoules, cartridges, stoppers, etc. and components thereof. The assay consists of the following steps: • 1) Drug of interest is labeled with a fluorescent chemical group and degree of incorporation of dye is quantified. • 2) Calibration curves of various concentrations of the fluorescently labeled biomolecules are generated. • 3) Fluorescently labeled drug solution is exposed to the pharmaceutical packaging surface of interest for a length of time ranging from minutes to years. • 4) Fluorescently labeled drug solution is removed from pharmaceutical packaging surface of interest. This solution can be analyzed to determine the amount of drugs remaining in the solution. […] Aliquots of the solution, or aliquots of the solution first concentrated, are then applied to a sample holding surface for determination of biomolecular adsorption via fluorescence measurements. […]

[2] = supplier material data; cited from earlier work
[3] = Direct vial assay: adsorption of labeled insulin to various coated surfaces (fluorescence); assay type: physicochemical; settings: 10 μg/mL in 50 mM phosphate buffer pH 7, 4° C., 72 hours; nine surfaces (FIG. 6)
Source text: as §1

| Substance | protein adsorption to sample surfaces [1] | pI [2] | protein adsorption to sample surfaces, normalized to Type 1 vial [3] |
| --- | --- | --- | --- |
| fibrinogen | quantifiable difference in protein adsorption between various sample surfaces | 5.4 |  |
| insulin: Porcine insulin from Sigma (15523), test biomolecule |  | 7.0 | quantifiable difference in protein adsorption between various sample surfaces |
